From paper PMC7266993 (2020)

B1: FLAG epitope-tagged STAG1, wild type (transient, HEK293) [human] / RAD21 (endogenous, HEK293) [human (endogenous in HEK293)] (parent complex)
chain 1: MITSELPVLQDSTNETTAHSDAGSELEETEVKGKRKRGRPGRPPSTNKKPRKSPGEKSRIEAGIRGAGRGRANGHPQQNGEGEPVTLFEVVKLGKSAMQSVVDDWIESYKQDRDIALLDLINFFIQCSGCRGTVRIEMFRNMQNAEIIRKMTEEFDEDSGDYPLTMPGPQWKKFRSNFCEFIGVLIRQCQYSIIYDEYMMDTVISLLTGLSDSQVRAFRHTSTLAAMKLMTALVNVALNLSIHQDNTQRQYEAERNKMIGKRANERLELLLQKRKELQENQDEIENMMNSIFKGIFVHRYRDAIAEIRAICIEEIGVWMKMYSDAFLNDSYLKYVGWTLHDRQGEVRLKCLKALQSLYTNRELFPKLELFTNRFKDRIVSMTLDKEYDVAVEAIRLVTLILHGSEEALSNEDCENVYHLVYSAHRPVAVAAGEFLHKKLFSRHDPQAEEALAKRRGRNSPNGNLIRMLVLFFLESELHEHAAYLVDSLWESSQELLKDWECMTELLLEEPVQGEEAMSDRQESALIELMVCTIRQAAEAHPPVGRGTGKRVLTAKERKTQIDDRNKLTEHFIITLPMLLSKYSADAEKVANLLQIPQYFDLEIYSTGRMEKHLDALLKQIKFVVEKHVESDVLEACSKTYSILCSEEYTIQNRVDIARSQLIDEFVDRFNHSVEDLLQEGEEADDDDIYNVLSTLKRLTSFHNAHDLTKWDLFGNCYRLLKTGIEHGAMPEQIVVQALQCSHYSILWQLVKITDGSPSKEDLLVLRKTVKSFLAVCQQCLSNVNTPVKEQAFMLLCDLLMIFSHQLMTGGREGLQPLVFNPDTGLQSELLSFVMDHVFIDQDEENQSMEGDEEDEANKIEALHKRRNLLAAFSKLIIYDIVDMHAAADIFKHYMKYYNDYGDIIKETLSKTRQIDKIQCAKTLILSLQQLFNELVQEQGPNLDRTSAHVSGIKELARRFALTFGLDQIKTREAVATLHKDGIEFAFKYQNQKGQEYPPPNLAFLEVLSEFSSKLLRQDKKTVHSYLEKFLTEQMMERREDVWLPLISYRNSLVTGGEDDRMSVNSGSSSSKTSSVRNKKGRPPLHKKRVEDESLDNTWLNRTDTMIQTPGPLPAPQLTSTVLRENSRPMGDQIQEPESEHGSEPDFLHNPQMQISWLGQPKLEDLNRKDRTGMNYMKVRTGVRHAVRGLMEEDAEPIFEDVMMSSRSQLEDMNEEFEDTMVIDLPPSRNRRERAELRPDFFDSAAIIEDDSGFGMPMF
chain 2: MFYAHFVLSKRGPLAKIWLAAHWDKKLTKAHVFECNLESSVESIISPKVKMALRTSGHLLLGVVRIYHRKAKYLLADCNEAFIKIKMAFRPGVVDLPEENREAAYNAITLPEEFHDFDQPLPDLDDIDVAQQFSLNQSRVEEITMREEVGNISILQENDFGDFGMDDREIMREGSAFEDDDMLVSTTTSNLLLESEQSTSNLNEKINHLEYEDQYKDDNFGEGNDGGILDDKLISNNDGGIFDDPPALSEAGVMLPEQPAHDDMDEDDNVSMGGPDSPDSVDPVEPMPTMTDQTTLVPNEEEAFALEPIDITVKETKAKRKRKLIVDSVKELDSKTIRAQLSDYSDIVTTLDLAPPTKKLMMWKETGGVEKLFSLPAQPLWNNRLLKLFTRCLTPLVPEDLRKRRKGGEADNLDEFLKEFENPEVPREDQQQQHQQRDVIDEPIIEEPSRLQESVMEASRTNIDESAMPPPPPQGVKRKAGQIDPEPVMPPQQVEQMEIPPVELPPEEPPNICQLIPELELLPEKEKEKEKEKEDDEEEEDEDASGGDQDQEERRWNKRTQQMLHGLQRALAKTGAESISLLELCRNTNRKQAAAKFYSFLVLKKQQAIELTQEEPYSDIIATPGPRFHII

Variants of: B1
Test: co-immunoprecipitation (anti-FLAG IP), capillary immunodetection assay; HEK293; read off a plot

ratio to parent | Variant
~0.06 | chain 1 D797A
~0.08 | chain 1 D797K
